# Laboratory results from article PMC7035229 (Acta Neuropathologica, 2019).
# B1: recombinant murine prion protein PrP_(23–231) (domain or fragment)
# chain: not shown
# notes: also called full-length PrP
# Key:
# [1] = target: T1, soluble aggregates of tau (STAs) (human, UniProt P10636-8 1-441); test: ELISA; conditions: both partners purified
# T1 construct: also called soluble Tau aggregates; SPAs (as a member of the group)
# [2] = target: T2, soluble aggregates of Aβ_(1–42) (SBAs) (human, UniProt P05067 672-713); test: ELISA; conditions: both partners purified
# T2 construct: also called soluble Aβ aggregates; SPAs (as a member of the group)
# T1 sequence (P10636 other isoform, or with tags, fused parts or gaps): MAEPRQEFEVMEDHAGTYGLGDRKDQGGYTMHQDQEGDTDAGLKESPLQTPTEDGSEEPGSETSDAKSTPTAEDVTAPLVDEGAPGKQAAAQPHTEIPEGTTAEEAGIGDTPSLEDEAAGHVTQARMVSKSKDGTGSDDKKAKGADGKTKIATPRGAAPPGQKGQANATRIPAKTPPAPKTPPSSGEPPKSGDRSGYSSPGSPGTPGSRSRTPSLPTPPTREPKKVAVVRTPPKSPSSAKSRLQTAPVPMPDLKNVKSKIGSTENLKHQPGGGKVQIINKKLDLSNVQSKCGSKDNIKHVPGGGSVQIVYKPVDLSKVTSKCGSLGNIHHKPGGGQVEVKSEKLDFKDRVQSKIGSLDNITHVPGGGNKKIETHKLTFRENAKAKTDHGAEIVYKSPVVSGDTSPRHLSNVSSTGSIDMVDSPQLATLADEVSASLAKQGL
binder,measurement,setting,value
B1,binding result,[1],binds
same,binding result,[2],binds
